Results reported in the supplement of paper PMC12042874.
± gives the uncertainty stated by the source.

Test: amyloid nucleation score (Sup35N fusion, yeast selection) (log enrichment); library NNK2; higher = more nucleation; inactive = no reads after selection
In short: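 On medium lacking adenine and uracil, psi-negative yeast expressing peptides of 20 random codons fused to Sup35N were grown 7 days at 30°C after a 24-hour induction with 100 μM copper sulfate. Illumina sequencing of input and output plasmid inserts gave the reads, and sequences under 100 input reads were excluded. The nucleation score is the DiMSum log enrichment of output over input reads, centred on the mode score of non-aggregating sequences.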

Substance	amyloid nucleation score
VDTRRMARKS	1.28 ± 0.27
TKVGYLNS	inactive
IYRLDHRACP	1.03 ± 0.38
SLKCDCYFSTGHI	inactive
LSMDRESFINERWSSQRVMV	-0.02 ± 0.5
TMCWPMILK	-0.072 ± 0.27
CDSVLPRLLNYKYTKNK	0.14 ± 0.63
ALATFVTPVAESA	4.05 ± 0.05
PPWCLNVCDMLRRSHLAFKR	-0.213 ± 1.1
TDVPSRIGPDMGKYLKAES	0.655 ± 0.62
NLTVCMLDSPGYQKDCGMRL	1.54 ± 0.27
TGSVDSSSIV	0.093 ± 0.42
IRTDSTNMCF	-0.647 ± 1.1
FWLSTWSFNVVYPDGEAQKS	-0.303 ± 0.48
GMVFRRWREMYSSFVDRTLR	0.799 ± 0.51
EVSRKTDTGQLLSDHVFFMN	-2.23 ± 0.78
MLKIHFLPLLGQWTLCRNPL	1.28 ± 0.43
TLECW	4.1 ± 0.049
YSEWSSTRPQFRTLNHEWLL	0.498 ± 0.74
MNLPKFNSYLMDSANARASP	0.58 ± 0.19
FVRHTHFG	-1.21 ± 1.1
HLCPTHLNNETLRTNFWAN	1.96 ± 0.19

Substance	amyloid nucleation score
YPTASVTATSHTFILSSNKN	3.48 ± 0.063
TTFTIWAYMVAHQYLEIGCI	inactive
IFIRMH	2.48 ± 0.16
YWANGSDEDSVGGNIDAVGD	-1.07 ± 0.55
ILVYDEVTSYQDPYFS	-0.69 ± 0.63
RGGVVNCRFRAHFMWL	5.779 ± 0.041
LLLVHL	1.08 ± 0.68
SCDIKCWCQ	3.41 ± 0.079
RSLSA	1.02 ± 0.34
AMNRFST	-0.975 ± 1.1
DSTPLGYSVLLSWTLVQRNL	1.38 ± 0.54
SIFFNRASCLRRV	inactive
KSCVGYLSAMESSVRL	0.045 ± 0.79
MVMGTYVIVRLYKHKNCNAY	-1.36 ± 0.55
IVSAKDILRLIYSVCGAGLG	-0.264 ± 0.48
SKARGLCFLSVLLFISDQST	-1.78 ± 1.1
LRTIEASLMGVSNLKKWSFI	-0.299 ± 0.48
IQASSLMVAKERFWGDLWWL	4.34 ± 0.1
CMTTYTNLIHIPIQVSTPKR	7.51 ± 0.043
TYCHYVADFLPLFRFRISGG	3.1 ± 0.065
GGTDMATFNVPKNEVRDRRG	1.4 ± 0.25
RCEAAMWMLASYRVCVTLSC	-0.525 ± 1.1

Substance	amyloid nucleation score
IYACGYGLFYEYHTCSMCEI	-0.977 ± 0.34
NYFVYNFLVV	4.95 ± 0.099
SFLRSTSRDPKGCVKMRYFT	1.17 ± 0.2
DRIAETSRYKRSENSLSLV	0.099 ± 0.53
DALLNFTRLSITNNVNIGP	5.894 ± 0.046
ILYYLGWVASALEGHYLDES	-0.853 ± 0.55
IISENAYCLPMIMT	-0.437 ± 0.54
RMNWGSNFLEE	-0.663 ± 0.32
YYWTPCGVCITFVGCNVILY	8.499 ± 0.022
DVRFVTEFKSYRSCCKQSMF	2.42 ± 0.054
VRGLFVLTVLEVS	-0.161 ± 1.1
TLVHNFGCSLGHLKFRQNMW	-0.33 ± 1.1
RAATYYQFVVLVCKQSDFKR	5.77 ± 0.095
APFDMVGVTVLDSPVMYTNA	0.512 ± 0.43
YFRSCDKCGAYEANHEFKTT	inactive
RKLIFVMTRRLGRSSRTVLM	0.112 ± 1.1
DYIEKGFPGLPYHSCGSSTF	inactive
IEFSDQVRCYLFCCRC	8.977 ± 0.07
RSIDRYRHHNLCRNQYVM	-0.693 ± 1.1
IRFWLRRFICD	-0.528 ± 0.36
PVCGVIALDSVTLCSSGMLL	0.334 ± 0.39
CFGVRDSGRYFDTLSNVRSR	1.11 ± 0.68

Substance	amyloid nucleation score
NIFRMHLGQASQVIIFLDCR	4.58 ± 0.12
CCGGVRMMEELRCSTWSRVV	0.868 ± 0.26
DSWFGRFYDEESSWCWAMVR	0.039 ± 0.36
NIAVPEKAVYTYSPSETQAL	-0.583 ± 0.55
AWDGIHTMMITYLKFIEKCQ	-1.31 ± 0.62
DGYIVFSRNAVNIFSVYFTG	6.212 ± 0.04
VYAMVGVSLACGCVSWKGHV	4.75 ± 0.086
VIGTTGMYLCVVLETIHNWC	1.07 ± 0.26
GRLRDCRDEHNSNPTLRFTS	0.449 ± 0.16
VKSRRLTYNS	0.192 ± 0.79
ASSSGPGCSLVSSVHASRQG	1.54 ± 0.52
YWLSRSWHWKKLFGGWFALL	0.016 ± 0.54
VLKCGHKYLVIDSWKL	1.78 ± 0.092
FGRGSRLLLCAGFPLLNSYA	-0.356 ± 1.1
RRSWDTYMGERGHQLPNPCG	0.93 ± 0.36
PDWMRGSSEYWSVGPRYCNS	0.355 ± 0.13
SWHVVQAVIDVVDREV	0.967 ± 0.22
RYHSRAWAPYCTTHATVPEV	1.28 ± 0.29
RDIMR	0.57 ± 0.5
CMTSKVLRLDYRRMMVNIDC	-0.58 ± 0.42
